Read-outs that look alike come from different tables or passages of the source. *1 amine or outer side, *2 acyl side, *3 side chain or, on linkers, in order; H or OH if unused. Bridges are numbered along the chain shown (N, C = ends). Primed or numbered codes have the meaning given here. [ ]: non-standard residue; d: D form. Phe(4-OMe)(3) = O-methyl-L-tyrosine (4-methoxy-L-phenylalanine), COc1ccc(C[C@H](N[*:1])C(=O)[*:2])cc1; 2Nal = N[C@@H](Cc1ccc2ccccc2c1)C(=O)O; AEF = NCCOc1ccc(C[C@H](N)C(=O)O)cc1; Pen = CC(C)(S)[C@H](N)C(=O)O; hLeu = CC(C)CC[C@H](N)C(=O)O; αMeK = C[C@](N)(CCCCN)C(=O)O; Abu = CC[C@H](N)C(=O)O
Columns and labels:
Rat IL-23R_huFC [1] = target: T1, Rat IL-23R_huFC (rat, UniProt F1LX96 39-369); assay: rat IL-23R competitive binding ELISA
T1 sequence: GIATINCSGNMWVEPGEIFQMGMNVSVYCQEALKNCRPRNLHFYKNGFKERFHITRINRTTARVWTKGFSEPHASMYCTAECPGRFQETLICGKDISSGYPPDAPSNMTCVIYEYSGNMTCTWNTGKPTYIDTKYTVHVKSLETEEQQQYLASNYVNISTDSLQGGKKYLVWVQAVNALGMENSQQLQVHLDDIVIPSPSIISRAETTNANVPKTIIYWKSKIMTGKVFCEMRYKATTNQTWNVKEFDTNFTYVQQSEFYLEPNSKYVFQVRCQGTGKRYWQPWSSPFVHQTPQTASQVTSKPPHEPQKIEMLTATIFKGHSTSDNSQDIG

IL23R_huFC [2] = target: T2, IL23R_huFC (human, UniProt Q5VWK5 24-353); assay: IL23-IL23R competitive binding ELISA
T2 sequence (looked up): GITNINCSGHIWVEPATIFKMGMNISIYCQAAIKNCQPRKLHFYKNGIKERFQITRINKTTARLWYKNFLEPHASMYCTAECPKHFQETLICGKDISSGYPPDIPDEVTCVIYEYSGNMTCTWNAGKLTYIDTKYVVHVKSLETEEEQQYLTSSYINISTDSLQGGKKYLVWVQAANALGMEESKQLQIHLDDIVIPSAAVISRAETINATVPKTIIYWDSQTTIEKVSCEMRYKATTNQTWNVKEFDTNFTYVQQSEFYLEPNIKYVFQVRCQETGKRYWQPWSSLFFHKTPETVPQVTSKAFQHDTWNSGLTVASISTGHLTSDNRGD

IL-23R on DB cells = target: T3, IL-23R on DB cells (human, UniProt Q5VWK5 24-629); assay: cell-based or functional assay
T3 sequence (looked up): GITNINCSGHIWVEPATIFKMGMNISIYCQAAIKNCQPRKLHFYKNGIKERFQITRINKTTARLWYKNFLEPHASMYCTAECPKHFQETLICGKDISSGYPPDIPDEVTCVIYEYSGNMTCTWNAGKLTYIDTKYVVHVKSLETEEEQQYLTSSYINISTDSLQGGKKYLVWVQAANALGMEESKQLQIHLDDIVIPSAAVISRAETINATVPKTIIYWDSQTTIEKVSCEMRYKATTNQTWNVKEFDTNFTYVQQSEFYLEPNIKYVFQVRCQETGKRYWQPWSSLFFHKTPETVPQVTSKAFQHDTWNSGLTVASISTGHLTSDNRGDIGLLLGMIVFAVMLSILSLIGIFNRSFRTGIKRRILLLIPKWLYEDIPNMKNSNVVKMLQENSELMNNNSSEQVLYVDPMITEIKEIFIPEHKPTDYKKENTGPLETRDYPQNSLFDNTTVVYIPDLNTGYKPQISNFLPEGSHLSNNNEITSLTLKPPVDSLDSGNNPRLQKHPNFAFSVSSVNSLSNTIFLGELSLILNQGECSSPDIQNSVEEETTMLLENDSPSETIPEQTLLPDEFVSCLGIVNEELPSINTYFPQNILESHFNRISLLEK

Rat IL-23R_huFC [3] = target: Rat IL-23R_huFC (rat); assay: rat ELISA vs IL-23
IL23R_huFC [4] = target: T4, IL23R_huFC (human, UniProt Q5VWK5 24-353); assay: human ELISA vs IL-23
T4 sequence (looked up): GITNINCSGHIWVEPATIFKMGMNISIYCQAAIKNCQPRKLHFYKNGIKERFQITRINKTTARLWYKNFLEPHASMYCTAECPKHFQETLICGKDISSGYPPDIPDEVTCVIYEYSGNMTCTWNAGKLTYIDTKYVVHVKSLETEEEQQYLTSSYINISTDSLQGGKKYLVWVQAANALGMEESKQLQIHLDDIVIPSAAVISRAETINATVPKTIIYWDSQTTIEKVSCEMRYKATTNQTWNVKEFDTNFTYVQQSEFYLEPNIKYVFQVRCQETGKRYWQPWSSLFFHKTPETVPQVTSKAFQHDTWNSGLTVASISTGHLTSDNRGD

[5] = target: T5, IL-23R on human cells (IL-23R-expressing DB cells; human NK cells) (human, UniProt Q5VWK5 24-629); assay: cell-based or functional assay
T5 sequence (looked up): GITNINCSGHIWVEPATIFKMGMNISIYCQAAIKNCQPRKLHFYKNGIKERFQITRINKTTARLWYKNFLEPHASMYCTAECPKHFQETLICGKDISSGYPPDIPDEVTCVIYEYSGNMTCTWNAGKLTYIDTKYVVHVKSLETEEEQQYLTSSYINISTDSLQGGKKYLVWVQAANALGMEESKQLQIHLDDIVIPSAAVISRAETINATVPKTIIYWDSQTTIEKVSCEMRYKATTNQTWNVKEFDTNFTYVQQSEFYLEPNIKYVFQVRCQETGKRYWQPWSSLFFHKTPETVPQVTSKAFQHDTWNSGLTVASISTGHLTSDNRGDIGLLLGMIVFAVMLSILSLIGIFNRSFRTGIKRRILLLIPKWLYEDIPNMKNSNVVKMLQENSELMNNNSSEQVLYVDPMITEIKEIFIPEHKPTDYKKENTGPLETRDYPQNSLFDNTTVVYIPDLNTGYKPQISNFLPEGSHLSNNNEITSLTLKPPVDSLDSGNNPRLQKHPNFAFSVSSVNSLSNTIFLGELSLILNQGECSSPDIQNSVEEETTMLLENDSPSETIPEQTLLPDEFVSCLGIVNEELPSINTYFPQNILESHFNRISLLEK

Rat IL-23R_huFC [6] = target: T1, Rat IL-23R_huFC; assay: rat IL-23R competitive binding ELISA; remark: listed apart in the source

B1: pyroglutamic acid-[Pen]-QTWQ[Pen]-[Phe(4-OMe)]-[2-Nal]-[α-MeLys]-[Lys(Ac)]-NG-NH2 (peptide)
peptide: EXQTWQXFXKKNG
modifications: N-terminal pyroglutamic acid; Pen-Pen disulfide; Phe(4-OMe); 2-Nal; α-MeLys; Lys(Ac); NH2
Rat IL-23R_huFC [1]
  IC50: 25 to 100 nM
IL23R_huFC [2]
  IC50: 25 to 100 nM
IL-23R on DB cells
  pStat3 HTRF IC50: < 10 nM

B2: Ac-[Pen]-QTWQ-[Pen]-Y-[2-Nal]-[α-MeLys]-ENG-NH2 (peptide)
peptide: XQTWQXYXKENG
modifications: Ac; Pen-Pen disulfide; 2-Nal; α-MeLys; NH2
Rat IL-23R_huFC [1]
  IC50: 100 to 1000 nM
IL23R_huFC [2]
  IC50: 25 to 100 nM
IL-23R on DB cells
  pStat3 HTRF IC50: < 10 nM

B3: Ac-[Pen]-QTWQ-[Pen]-[Phe(4-OMe)]-[2-Nal]-[α-MeLys]-ENG-NH2 (peptide)
peptide: XQTWQXFXKENG
modifications: Ac; Pen-Pen disulfide; Phe(4-OMe); 2-Nal; α-MeLys; NH2
Rat IL-23R_huFC [1]
  IC50: 100 to 1000 nM
IL23R_huFC [2]
  IC50: 25 to 100 nM

B4: Ac-[Pen]-QTWQ-[Pen]-[Phe[4-(2-acetylaminoethoxy)]-[2-Nal]-[α-MeLeu]-QNN-NH2 (peptide)
peptide: XQTWQXFXLQNN
modifications: Ac; Pen-Pen disulfide; Phe[4-(2-acetylaminoethoxy)]; 2-Nal; α-MeLeu; NH2
IL23R_huFC [2]
  IC50: < 10 nM
IL-23R on DB cells
  pStat3 HTRF IC50: < 10 nM

B5: Ac-[Pen]-QTWQ-[Pen]-[Phe[4-(2-acetylaminoethoxy)]-[2-Nal]-[α-MeLeu]-[Lys(Ac)]-NN-NH2 (peptide)
peptide: XQTWQXFXLKNN
modifications: Ac; Pen-Pen disulfide; Phe[4-(2-acetylaminoethoxy)]; 2-Nal; α-MeLeu; Lys(Ac); NH2
IL23R_huFC [2]
  IC50: < 10 nM
IL-23R on DB cells
  pStat3 HTRF IC50: < 10 nM

B6: Ac-[Pen]-QTWQ-[Pen]-[Phe[4-(2-acetylaminoethoxy)]-[2-Nal]-[α-MeLys(Ac)]-ENA-NH2 (peptide)
peptide: XQTWQXFXKENA
modifications: Ac; Pen-Pen disulfide; Phe[4-(2-acetylaminoethoxy)]; 2-Nal; α-MeLys(Ac); NH2
IL23R_huFC [2]
  IC50: 10 to 25 nM
IL-23R on DB cells
  pStat3 HTRF IC50: < 10 nM

B7: Ac-[Pen]-QTWQ-[Pen]-[Phe[4-(2-aminoethoxy)]-[2-Nal]-[α-MeLeu]-QNN-NH2 (peptide)
peptide: XQTWQXFXLQNN
modifications: Ac; Pen-Pen disulfide; Phe[4-(2-aminoethoxy)]; 2-Nal; α-MeLeu; NH2
Rat IL-23R_huFC [1]
  IC50: < 10 nM
IL23R_huFC [2]
  IC50: < 10 nM
IL-23R on DB cells
  pStat3 HTRF IC50: < 10 nM

B8: Ac-[Pen]-QTWQ-[Pen]-[Phe[4-(2-aminoethoxy)]-[2-Nal]-[α-MeLeu]-[Lys(Ac)]-NN-NH2 (peptide)
peptide: XQTWQXFXLKNN
modifications: Ac; Pen-Pen disulfide; Phe[4-(2-aminoethoxy)]; 2-Nal; α-MeLeu; Lys(Ac); NH2
Rat IL-23R_huFC [1]
  IC50: < 10 nM
IL23R_huFC [2]
  IC50: < 10 nM
IL-23R on DB cells
  pStat3 HTRF IC50: < 10 nM

B9: Ac-[Pen]-QTWQ-[Pen]-[Phe[4-(2-aminoethoxy)]-[2-Nal]-[α-MeLys]-ENA-NH2 (peptide)
peptide: XQTWQXFXKENA
modifications: Ac; Pen-Pen disulfide; Phe[4-(2-aminoethoxy)]; 2-Nal; α-MeLys; NH2
Rat IL-23R_huFC [1]
  IC50: 25 to 100 nM
IL23R_huFC [2]
  IC50: < 10 nM
IL-23R on DB cells
  pStat3 HTRF IC50: < 10 nM

B10: Ac-[Pen]-STWQ-[Pen]-[Phe[4-(2-aminoethoxy)]-[2-Nal]-[α-MeLys]-ENG-NH2 (peptide)
peptide: Ac-[Pen]STWQ[Pen][AEF][2Nal][αMeK]ENG-NH2
modifications: disulfide 1-6 (inferred)
IL23R_huFC [2]
  IC50: 10 to 25 nM
IL-23R on DB cells
  pStat3 HTRF IC50: < 10 nM

B11: Ac-[Pen]-TTWQ-[Pen]-[Phe[4-(2-aminoethoxy)]-[2-Nal]-[α-MeLys]-ENG-NH2 (peptide)
peptide: Ac-[Pen]TTWQ[Pen][AEF][2Nal][αMeK]ENG-NH2
modifications: disulfide 1-6 (inferred)
IL23R_huFC [2]
  IC50: 10 to 25 nM
IL-23R on DB cells
  pStat3 HTRF IC50: < 10 nM

B12: Ac-Cyclo-[[Abu]-QTWQC]-[Phe(4-OMe)]-[2-Nal][α-MeLys]-[Lys(Ac)]-NS-NH2 (peptide)
peptide: Ac-[Abu]QTWQC[Phe(4-OMe)(3)][2Nal][αMeK]K(Ac)NS-NH2
modifications: thioether 1-6
Rat IL-23R_huFC [3]
  IC50: 10 to 25 nM
IL23R_huFC [4]
  IC50: 10 to 25 nM
[5]
  pStat3 HTRF IC50: < 10 nM

B13: Ac-Cyclo-[[Abu]-QTWQC]-[Phe(4-OMe)]-[2-Nal]-[α-MeOrn]-[Lys(Ac)]-NG-NH2 (peptide)
peptide: XQTWQCFXXKNG
modifications: as bracketed in name; thioether cyclo
Rat IL-23R_huFC [3]
  IC50: 10 to 25 nM
IL23R_huFC [4]
  IC50: 10 to 25 nM
[5]
  pStat3 HTRF IC50: < 10 nM

B14: Ac-CQTWQCYW-[hLeu]-EPG-NH2 (peptide)
peptide: Ac-CQTWQCYW[hLeu]EPG-NH2
modifications: not fully specified (bridges); cysteine pairing not given here
Rat IL-23R_huFC [6]
  IC50: 140 nM

B15: Ac-CQTWQCYW-[hLeu]-[Lys(Ac)]-NG-NH2 (peptide)
peptide: Ac-CQTWQCYW[hLeu]K(Ac)NG-NH2
modifications: cysteine pairing not given here
Rat IL-23R_huFC [6]
  IC50: 32 nM

B16: Ac-CTTWQCYW-[Leu]-ENG-NH2 (peptide)
peptide: Ac-CTTWQCYW[hLeu]ENG-NH2
modifications: disulfide 1-6 (inferred)
Rat IL-23R_huFC [6]
  IC50: 28 nM

B17: Ac-[Pen]-QTWQ-[Pen]-Y-[α-MeLeu]-ENG-NH2 (peptide)
peptide: XQTWQXYWLENG
modifications: Ac; Pen-Pen disulfide; α-MeLeu; NH2
Rat IL-23R_huFC [1]
  IC50: 100 to 1000 nM
IL23R_huFC [2]
  IC50: 25 to 100 nM
IL-23R on DB cells
  pStat3 HTRF IC50: 10 to 25 nM
